Results on three molecules are retold here after patent publication US20240010747A1, “ANTI-MRP4 (ENCODED BY ABCC4 GENE) ANTIBODIES AND USES THEREOF” (Kenjockety Biotechnology, Inc., priority 2020, published 2024).

In assay [1] the target is T1, cynomolgus ABCC4 (cynomolgus, UniProt A0A2K5W0Z4 1-1325).
T1 construct: whole, on cells; Expressed on murine C6 cells stably transfected with cynomolgus ABCC4 cDNA with C-terminal FLAG tag; not shown: C-terminal fused FLAG tag
T1 sequence: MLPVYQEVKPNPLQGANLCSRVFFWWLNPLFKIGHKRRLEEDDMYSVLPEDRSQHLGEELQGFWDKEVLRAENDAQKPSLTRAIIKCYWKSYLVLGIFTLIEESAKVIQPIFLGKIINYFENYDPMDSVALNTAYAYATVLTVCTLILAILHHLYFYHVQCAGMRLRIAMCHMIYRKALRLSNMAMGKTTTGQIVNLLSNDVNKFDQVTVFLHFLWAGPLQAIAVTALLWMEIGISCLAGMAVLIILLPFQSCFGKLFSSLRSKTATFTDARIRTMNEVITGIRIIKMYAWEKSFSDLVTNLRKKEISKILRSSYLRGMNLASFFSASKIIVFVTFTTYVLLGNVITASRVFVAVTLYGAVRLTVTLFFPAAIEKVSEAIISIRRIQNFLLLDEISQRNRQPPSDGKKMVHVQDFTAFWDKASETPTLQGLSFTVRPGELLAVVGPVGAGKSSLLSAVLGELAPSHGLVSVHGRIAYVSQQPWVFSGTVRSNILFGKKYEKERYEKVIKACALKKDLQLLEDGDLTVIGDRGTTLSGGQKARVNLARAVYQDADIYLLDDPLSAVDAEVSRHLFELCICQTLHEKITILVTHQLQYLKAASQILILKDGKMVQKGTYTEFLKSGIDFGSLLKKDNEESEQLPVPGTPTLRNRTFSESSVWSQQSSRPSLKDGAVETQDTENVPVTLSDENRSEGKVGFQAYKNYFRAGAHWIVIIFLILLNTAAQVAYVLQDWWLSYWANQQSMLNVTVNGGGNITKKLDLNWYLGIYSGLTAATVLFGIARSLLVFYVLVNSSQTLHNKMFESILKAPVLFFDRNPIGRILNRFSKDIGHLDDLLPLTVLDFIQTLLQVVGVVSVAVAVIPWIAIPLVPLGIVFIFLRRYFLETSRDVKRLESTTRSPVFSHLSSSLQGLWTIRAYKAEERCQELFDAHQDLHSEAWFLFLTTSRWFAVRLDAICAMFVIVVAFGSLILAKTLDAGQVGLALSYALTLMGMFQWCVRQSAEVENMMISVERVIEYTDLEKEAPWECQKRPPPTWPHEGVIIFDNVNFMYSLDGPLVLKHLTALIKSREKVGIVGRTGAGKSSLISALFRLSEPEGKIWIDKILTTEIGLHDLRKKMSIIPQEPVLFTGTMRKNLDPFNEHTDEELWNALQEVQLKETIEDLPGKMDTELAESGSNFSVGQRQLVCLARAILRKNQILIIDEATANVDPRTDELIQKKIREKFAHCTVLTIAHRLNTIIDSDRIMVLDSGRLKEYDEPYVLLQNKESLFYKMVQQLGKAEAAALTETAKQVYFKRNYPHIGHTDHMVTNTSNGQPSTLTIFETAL
The experiment in a line: FACS, different C6.cC4 cell line stably expressing cynomolgus ABCC4. On the procedure:
Antibody binding to cells was evaluated by flow cytometry. Murine C6 cells stably transfected to express human or cynomolgus ABCC4 were washed once in flow cytometry buffer (PBS+2% FBS+0.02% sodium azide), resuspended at 2×10\hat{ }6 cells/mL in flow cytometry buffer, and dispensed into 96-well microtiter plates at 0.1 mL/well. Recombinant antibodies were added to cells at 5 ug/mL for initial binding confirmation, or serially diluted from 100 ug/mL in flow cytometry buffer. After incubating cells on ice for 30 min, cells were washed twice with flow cytometry buffer. Bound antibody was detected with PE-labeled F(ab′)₂ fragment goat anti-human IgG (Jackson ImmunoResearch) and evaluated on an Attune N×T flow cytometer. EC50 is calculated to be the concentration of antibody that gives half maximal response.
For orientation: In flow cytometry, cells or beads pass a laser one at a time.

The subject of assay [2] is cynomolgus ABCC4. The experiment in a line: Flow cytometry (FACS) binding to C6 cells stably transfected to express cynomolgus ABCC4 (different experiment, different C6.cC4 cell line, Table 4). Set-up: key to Cynomolgus ABCC4 binding: Negative (−)=Rmax (MFI) below background level; Positive (+)=MFI>3× background level. Conditions: different C6.cC4 cell line, C6 cells stably transfected to express cynomolgus ABCC4, FACS; Table 4. An outline of the steps: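 Murine C6 cells stably expressing FLAG-tagged human or cynomolgus ABCC4 incubated 30 min on ice with antibodies, either 5 ug/mL or serially diluted from 100 ug/mL, in PBS+2% FBS+0.02% azide. Detection with PE anti-human IgG F(ab′)2 by flow cytometry; EC50 at half-maximal MFI; negative below background, positive >3× background.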

B1: C4.1148 (antibody, V domains shown)
VH: EVQLVESDGGLVQPGRSLKLSCAASGFTFSDYYMAWVRQAPPKGLEWVATISYDAFTTYYRDSVKGRFTISRDNAKTILFLQMDSLRSEDTATYYCIRLSTRYKGVMDAWGHGASVTVSS
VL: DIQMTQSPSNLAASPGESVSINCKASETIYKYLAWYQQKPGRTNKLLIYSGSTLQSGTPSRFSGSGSGTDFTLTIRNLEPEDFGRYYCQHHVEYPPTFGAGTKLELK
Consider B1, for which the binding result with cynomolgus ABCC4 [1] is recorded as “no binding (tested: Rmax (MFI) below background level)”. Besides, the “Cynomolgus ABCC4 binding” value in the assay on cynomolgus ABCC4 [2] is reported as “−”.

B2: C4.1139 (antibody, V domains shown)
VH: EVQLVESDGGLVQPGRSLKLSCAASGFTFSDYYMAWVRQAPTKGLYWVASISYDGSTTYYRDSVKGRFTISRDNAKSTLYLQMGSLRSEDTATYYCARLSIRYKGVMDAWGRGASVTVSS
VL: DVVMTQSPSNLAASPGESVSINCKASKSIGKFLAWYQQKPGRPNKLLIYSGSTLQSGTPSRFSGSGSGTDFTLTIRNLEPGDFGLYYCQHHIEYPPTFGPGTKLELK
As to B2, the binding result with cynomolgus ABCC4 [1] was “no binding (tested: Rmax (MFI) below background level)”. Moreover, the “Cynomolgus ABCC4 binding” value in the assay on cynomolgus ABCC4 [2] was “−”.

B3: C4.1059 (antibody, V domains shown)
VH: QVQLLQSGAALVKPGASVKMSCKPSGYTFTDYWVSWVKQSHGKSLEWIGEIYPNNGATNFNEKFKGKATLTVDKSTSTAYMELSRLTSEDSAIYYCPSRKYGYNWNFDYWGQGTMVTVSS
VL: DIVLTQSPALAVSLGQRATISCWASQSVSISRYNLMHWYQQKPGQQPKLLIYRASNLASGIPARFSGSGSGTDFTLTINPVQADDIATYYCQQSGESPWTFGGGTKLELK
Regarding B3, the binding result with cynomolgus ABCC4 [1] is “no binding (tested: Rmax (MFI) below background level)”. Further, in the assay with cynomolgus ABCC4 [2], the “Cynomolgus ABCC4 binding” value is on record as “−”.
